Changes are numbered by the printed parent chain.
B1: M207-A04 (Fab, V domains shown)
VH: EVQLLESGGGLVQPGGSLRLSCAASGFTFSHYLMTWVRQAPGKGLEWVSYISPSGGHTIYADSVKGRFTISRDNSKNTLYLQMNSLRAEDTAVYYCARVARGIAARSRTSYFDYWGQGTLVTVSS
VL: DIQMTQSPGTLSLSPGERATLSCRTSQFVNSNYLAWYQQTPGQAPRLLIYGASSRATGIPDRFSGTGYGTDFTLTISRLEPEDYGTYYCQQSSRTPWTFGQGTRVEIK
B2: M209-D02 (Fab, V domains shown)
VH: B1 VH with A104T, Y114D
VL: B1 VL with G42S
B3: M209-H03 (Fab, V domains shown)
VH: B1 VH with G42S, R101Q, S110T, Y111Q
VL: B1 VL
B4: M209-B11 (Fab, V domains shown)
VH: B1 VH with F112I, Y114Q
VL: B1 VL
B5: M209-D12 (Fab, V domains shown)
VH: B1 VH with G42S, R98T, Y114Q
VL: B1 VL
B6: M209-H07 (Fab, V domains shown)
VH: B1 VH with S107Q, F112Y
VL: B1 VL with S53D, S54D
B7: M6-D09 (antibody, V domains shown)
VH: EVQLLESGGGLVQPGGSLRLSCAASGFTFSFYYMVWVRQAPGKGLEWVSVIYPSGGITVYADSVKGRFTISRDNSKNTLYLQMNSLRAEDTAVYYCARDKWAVMPPYYYYAMDVWGQGTTVTVSS
VL: DIQMTQSPSSLSASVSDRVTITCRASQSIRNYLNWYQQKPSKAPNLLIYAASTLQSGVPARFSGSGSGTDFTLTISSLQPEDFATYYCQQLSGYPHTFGQGTKLEIK
notes: HC as printed runs into CH1
B8: M29-D09 (antibody, V domains shown)
VH: EVQLLESGGGLVQPGGSLRLSCAASGFTFSWYTMVWVRQAPGKGLEWVSYIYPSGGATFYADSVKGRFTISRDNSKNTLYLQMNSLRAEDTAVYYCAMGSYDYIWGFYSDHWGQGTLVTVSS
VL: QSALTQPPTVSVSPGQTARITCSGNKLGDKYVAWYQQKPGQSPMLVIYQDTKRPSAIPERFSGSNSANTATLSISGTQALDEADYYCQAWDSSIVIFGGGTRLTVL
notes: HC as printed runs into CH1

Target: T1, human plasma kallikrein (human, UniProt P03952 20-390; P03952 391-638)
Experiment: cell-based or functional assay

T1 sequence (P03952 20-390, chain 1 of 2): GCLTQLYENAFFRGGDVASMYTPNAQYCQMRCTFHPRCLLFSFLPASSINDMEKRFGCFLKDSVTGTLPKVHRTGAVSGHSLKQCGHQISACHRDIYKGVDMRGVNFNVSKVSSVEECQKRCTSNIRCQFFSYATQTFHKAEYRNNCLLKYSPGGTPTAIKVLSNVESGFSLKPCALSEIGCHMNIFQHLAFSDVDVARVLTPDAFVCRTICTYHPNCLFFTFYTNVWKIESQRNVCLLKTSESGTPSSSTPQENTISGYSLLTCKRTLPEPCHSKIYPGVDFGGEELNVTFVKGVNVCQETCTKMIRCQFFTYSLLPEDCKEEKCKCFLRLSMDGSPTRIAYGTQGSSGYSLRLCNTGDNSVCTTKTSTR
T1 sequence (P03952 391-638, chain 2 of 2): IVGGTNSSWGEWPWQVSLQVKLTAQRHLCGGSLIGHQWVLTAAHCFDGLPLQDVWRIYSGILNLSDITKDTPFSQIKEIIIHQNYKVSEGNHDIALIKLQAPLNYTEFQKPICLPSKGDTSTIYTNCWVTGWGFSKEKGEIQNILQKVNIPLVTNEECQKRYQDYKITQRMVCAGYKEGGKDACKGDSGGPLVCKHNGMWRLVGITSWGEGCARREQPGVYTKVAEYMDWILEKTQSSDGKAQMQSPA

Binder	% inhibition at 10 nM [%]
B1	90.9
B2	74.7
B3	82.6
B4	87.3
B5	85.4
B6	76.1

Target: T2, mouse plasma kallikrein (mouse, UniProt P26262 20-638)
T2 construct: mature; Source of the mouse enzyme used for Ki,app is not described; also called mouse pKal
Experiment: apparent Ki (Ki,app), mouse pKal

T2 sequence (P26262 20-638 limits assumed): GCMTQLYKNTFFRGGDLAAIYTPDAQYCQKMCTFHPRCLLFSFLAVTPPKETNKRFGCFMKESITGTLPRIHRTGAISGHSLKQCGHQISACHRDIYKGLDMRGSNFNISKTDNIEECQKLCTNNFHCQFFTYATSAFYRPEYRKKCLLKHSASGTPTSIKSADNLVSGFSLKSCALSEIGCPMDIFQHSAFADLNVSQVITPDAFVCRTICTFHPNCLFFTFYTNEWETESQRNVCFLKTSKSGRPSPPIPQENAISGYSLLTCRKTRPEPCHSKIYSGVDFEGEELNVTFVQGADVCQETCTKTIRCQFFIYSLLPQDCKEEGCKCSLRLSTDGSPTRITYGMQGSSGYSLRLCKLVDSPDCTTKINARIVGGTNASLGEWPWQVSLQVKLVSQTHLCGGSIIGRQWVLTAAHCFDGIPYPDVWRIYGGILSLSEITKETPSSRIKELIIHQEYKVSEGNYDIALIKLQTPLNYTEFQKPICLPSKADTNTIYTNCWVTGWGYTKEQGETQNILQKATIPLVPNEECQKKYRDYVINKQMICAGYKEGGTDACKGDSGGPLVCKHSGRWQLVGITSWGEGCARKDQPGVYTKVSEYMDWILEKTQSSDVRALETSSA

Binder	Ki [nM]
B7	3.9

Target: T1, human plasma kallikrein
Experiment: apparent Ki (Ki,app), human pKal

Binder	Ki [nM]
B7	5.9
B8	0.7

— patent US20100183625A1 (published 2010)
